Experimental data taken from US20210206850A1 (ACCURUS BIOSCIENCES, published 2021).
“And” between values parts separate entries of the source, which are not always exact repeats. Identical values can stand only once. Each block holds one binder with its values, some of them ahead of it.

Assays:
[1] = target: T1, His tagged mouse CD47 protein (mouse, UniProt Q61735 19-140, limits assumed); experiment: ELISA, plate coated with His tagged mouse CD47 at 2 ug/ml, goat anti-mouse IgG-HRP, OD450
T1 construct: Bought protein
T1 sequence (looked up): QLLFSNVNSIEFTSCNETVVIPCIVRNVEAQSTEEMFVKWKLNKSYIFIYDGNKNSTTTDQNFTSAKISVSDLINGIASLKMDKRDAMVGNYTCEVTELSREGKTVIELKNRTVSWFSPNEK
Description: To evaluate the binding cross-reactivity of anti-human CD47 antibodies to cynomolgus and mouse CD47, an ELISA based binding assay was used. Briefly, microtiter plates were coated with His tagged cynomolgus monkey CD47 or His tagged mouse CD47 protein (purchase from Acro Biosystem). Both proteins were coated at 2 μg/ml in PBS, 100 μl/well at 4° C. overnight. The plates were then blocked with 100 μl/well of 2% BSA. Ten-fold dilutions of mouse anti-human CD47 hybridoma antibodies were added to each well starting at 70 ug/ml and incubated for 1-2 hours at RT. The plates were washed with PBS/Tween and then incubate with goat-anti-mouse IgG antibody conjugated with Horse Radish Peroxidase (HRP) for 1 hour at RT. After washing, the plates were developed with TMB substrate and analyzed by spectrophotometer at OD 450 nm.

[2] = target: T2, human CD47ECD His tagged protein (human, UniProt Q08722 19-139, limits assumed); experiment: ELISA ligand blocking, plate coated with human CD47 ECD His tagged protein at 1 ug/ml; blocked ligand human SIRPaECD huFc at 1 ug/ml, anti-human IgG-HRP
T2 construct: extracellular domain; also called HuCD47ECD 8xHis; monovalent CD47ECD His tagged protein
T2 sequence (Q08722 19-139 limits assumed): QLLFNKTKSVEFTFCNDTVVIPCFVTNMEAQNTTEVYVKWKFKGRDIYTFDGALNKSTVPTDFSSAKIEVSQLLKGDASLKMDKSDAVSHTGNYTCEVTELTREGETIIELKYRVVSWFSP
Description: (§1) To evaluate the blocking ability of anti-human CD47 mouse mAb on recombinant human CD47 binding to its ligand SIRPα, an ELISA based ligand blocking assay was employed. Briefly, microtiter plates were coated with human CD47ECD His tagged protein at 1 μg/ml in PBS, 100 μl well at 4° C. overnight, then blocked with 100 μl/well of 2% BSA. […] The plates were washed with PBS/Tween and then incubated with anti-human IgG-HRP for 1 hour at 37° C. After washing, the plates were developed with TMB substrate and analyzed by spectrophotometer at OD 450 nm.

[3] = target: human CD47 (full length) expressed on cells (human) (UniProt Q08722); experiment: FACS ligand blocking on CD47-CHO cells; blocked ligand FITC human SIRPa huFc at 4 ug/ml
Chain of human CD47 (full length) expressed on cells (human) (Q08722 19-323): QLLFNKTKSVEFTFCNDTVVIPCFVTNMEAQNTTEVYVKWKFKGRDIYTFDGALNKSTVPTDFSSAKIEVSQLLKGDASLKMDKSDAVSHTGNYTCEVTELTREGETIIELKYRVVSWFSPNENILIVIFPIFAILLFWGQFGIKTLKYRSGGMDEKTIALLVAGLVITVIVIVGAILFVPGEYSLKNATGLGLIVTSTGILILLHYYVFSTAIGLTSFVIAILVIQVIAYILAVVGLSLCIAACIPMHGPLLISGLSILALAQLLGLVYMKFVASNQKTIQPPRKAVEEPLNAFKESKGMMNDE

[4] = target: T3, human CD47ECD mouse Fc protein (human, UniProt Q08722 19-139, limits assumed); experiment: SPR (Biacore 3000); antibody captured on anti-human Fc chip, bivalent HuCD47ECD muFc injected
T3 construct: extracellular domain; also called HuCD47ECD muFc; bivalent CD47ECD muFc protein; not shown: mouse Fc
T3 sequence (Q08722 19-139 limits assumed): as the sequence (Q08722 19-139 limits assumed) above
Description: (§2) The binding affinities of anti-human CD47 mouse/human chimeric antibodies to human CD47 protein were determined with BIACORE™ using a capture method. The anti-human CD47 mouse/human chimeric antibodies were captured using anti-human Fc antibody coated on a CMS chip. Serial dilutions of human CD47ECD mouse Fc protein starting from 400 nM were injected over captured antibody for 1 mins at a flow rate of […]. Alternatively, serial dilutions of human CD47ECD His tagged protein starting from 800 nM were injected over captured antibody for 1 min at a flow rate of […]. The antigens were allowed to dissociate for 900s. All the experiments were carried out on a Biacore 3000. Data analysis was carried out using Biacore 3000 evaluation software.

[5] = target: T2, human CD47ECD His tagged protein; experiment: SPR (Biacore 3000); antibody captured on anti-human Fc chip, monovalent HuCD47ECD 8xHis injected
Description: as §2

[6] = target: T3, human CD47ECD mouse Fc protein; experiment: SPR (Biacore 3000); antibody captured on anti-human Fc chip, bivalent HuCD47ECD muFc injected; column Affinity (nM)
Description: as §2

[7] = target: T2, human CD47ECD His tagged protein; experiment: SPR (Biacore 3000); antibody captured on anti-human Fc chip, monovalent HuCD47ECD 8xHis injected; column Affinity (nM)
Description: as §2

[8] = target: T2, human CD47ECD His tagged protein; experiment: ELISA competition; plate-bound human CD47ECD His, competitor ligand SIRPα huFc 1 ug/ml
Description: as §1

[9] = target: T4, human CD47ECD human Fc protein (human, UniProt Q08722 19-139, limits assumed); experiment: ELISA, plate coated with human CD47ECD huFc at 1 ug/ml, goat anti-mouse IgG-HRP, OD450
T4 construct: extracellular domain; also called human CD47ECD huFc; human CD47huFc; not shown: human Fc
T4 sequence (Q08722 19-139 limits assumed): as above
Text: After washing, the plates were developed with TMB substrate and analyzed by spectrophotometer at OD 450 nm.

binding result [1]: no binding (tested: 70 ug/ml) | IC50 [2]: 0.27 µg/mL and 1.77 nM
B1: D8S1 (antibody, V domains shown)
VH: EVQLQQSVAELVRPGASVKLSCTVSGFNIKNTYIYWVKQRPEQGLEWIGRIDPANGNTKDAPKFQGKATMTADTSSNTAYLQLSSLTSEDTAIYYCARGYGSGFAYWGQGTLVTVSA
VL: DIQMTQTTSSLSASLGDRVTISCRASQDISNHLNWYQQKPDGIVKLLIYYTSRLHSGVPSRFSGSGSGTDYSLTISNLEQEDIATYFCQQGSTLPFTFGSGTKLEIK
notes: Mouse hybridoma form; the mouse/human chimeric form with the same V regions is m13; also called D8S1 mouse anti-human CD47 hybridoma antibody

binding result [1]: no binding (tested: 70 ug/ml) | IC50 [2]: 1.94 µg/mL and 12.9 nM
B2: D96S1 mouse anti-human CD47 hybridoma antibody (antibody, V domains shown)
VH: EVQLQQSGAELVKPGASVKLSCTASGFNIKDTYIHWVKQRPEQGLEWIGRIDPANGNIKSDPKFQGKATVTADTSSNTAYLQLSSLTSEDTAVYYCARSYGSSFASWGQGTLVTVSP
VL: DIQMTQTTSSLSASLGDRVTISCRASQDISNHLNWYQQKPDGAVKLLIYYTSRLHSGVPSRFSGSGSGTDYSLTISNLEQEDIATYFCQQGSTFPYTFGGGTKLEIK
notes: Mouse hybridoma IgG

binding result [1]: no binding (tested: 70 ug/ml) | IC50 [2]: 0.16 µg/mL and 1.06 nM
B3: D41S2 (antibody, V domains shown)
VH: EVQLQQSVAELVRPGASVKLSCTPSGFNIKNTYIYWVRQRPEQGLEWIGRIDPANGNTKDAPKFQGKATMTADTSSNTAYLQLSSLTSEDTAIYYCARGYGSGFAYWGQGTLVTVSA
VL: DIQMTQTTSSLSASLGDRVTISCRASQDISNHLNWYQQKPDGTVKLLIYYTSRLHSGVPSRFSGSGSGTDYSLTISNLEQEDIATYFCQQGSTLPFTFGSGTKLEIK
notes: Mouse hybridoma form; the mouse/human chimeric form with the same V regions is m16; also called D41S2 mouse anti-human CD47 hybridoma antibody

IC50 [3]: 8.6 µg/mL | Kd [4]: 47.9 pM | koff [4]: 2.25e-05 s⁻¹ | kon [4]: 469000 M⁻¹ s⁻¹ | Kd [5]: 798 pM | koff [5]: 0.000703 s⁻¹ | kon [5]: 881000 M⁻¹ s⁻¹ | Kd [6]: 47.9 pM | Kd [7]: 798 pM
B4: AB6.12, a humanized version of anti-CD47 antibody 2A1 from Celgene (antibody, from another filing, V domains shown)
VH: QMQLVQSGAEVKKTGSSVKVSCKASGFNIKDYYLHWVRQAPGQALEWMGWIDPDQGDTEYAQKFQDRVTITRDRSMSTAYMELSSLRSEDTAMYYCNAAYGSSSYPMDYWGQGTTVTVSS
VL: NIQMTQSPSAMSASVGDRVTITCKASQDIHRYLSWFQQKPGKVPKHLIYRANRLVSGVPSRFSGSGSGTEFTLTISSLQPEDFATYYCLQYDEFPYTFGGGTKVEIKR

binding result [1]: no binding (tested: 70 ug/ml) | IC50 [2]: 0.25 µg/mL and 1.69 nM
B5: D125S3 (antibody, V domains shown)
VH: EVQLVESGGDLVKPGGSLNLSCAASGFTFSDYGMSWVRQTPDMRLEWVATISKYGTYTSYPDSVKGRFTISRSNAKNTLYLQMSSLKSADTALYYCARRFFGNYNYWYFDVWGAGTTVTVSS
VL: DIVLTQSPASLAVSLGQRATFSCRASESVDEFGISYIHWYKKSPGQPPKLLIYRASTLESGISARFSGSGSGTDFTLTINPVETDDVATYYCQQSNQDPLTFGAGTKLELK
notes: Mouse hybridoma form; the mouse/human chimeric form with the same V regions is m18; also called D125S3 mouse anti-human CD47 hybridoma antibody

IC50 [8]: 590 pM | EC50 (read off the curve) [9]: ~0.02 µg/mL | binding result [1]: binds | IC50 [2]: 0.09 µg/mL
B6: D36S4 mouse anti-human CD47 hybridoma antibody (antibody, V domains shown)
VH: EVKLEESGGGLVQPGGSMKLSCVASGFTFSRYWMNWVRQSPDKGLEWVAQIRLKSDNYETHYAESVKGRFTISRDDSKSSVYLQMNNLRAEDTGIYYCIEEGGYYVPFAYWGQGTLVTVSA
VL: DIVVSQSPSSLAVSAGEKVTMSCKSSQSLFKSRTRKNYLAWYQQRPGQSPKLLIYWASIRESGVPDRFTGSGSGTEFTLTISSVQAEDLAVYYCKQSYYLLTFGAGTKLELK
notes: Mouse hybridoma IgG

IC50 [8]: 1000 pM | IC50 [2]: 0.15 µg/mL and 1.02 nM
B7: D28S1 mouse anti-human CD47 hybridoma antibody (antibody, V domains shown)
VH: EVQLVESGGDLVKPGGSLKLSCAASGFTFTSYGMSWVRQTPDKRLEWVATINTGGSYTYYPDSVKGRFTISRDNAKNTLYLQMSSLKSEDTAMYYCARHTIKSLMDYWGQGTSVTVSS
VL: ETTVTQSPASLSMAIGEKVTIRCITSTDIDDDMNWYQQKPGEPPKLLISEGNTLRPGVPSRFSSSGYGTDFVFIIENMFSEDVADYYCLQSDNLPYTFGSGTKLEIK
notes: Mouse hybridoma IgG
